The data set deals with the molecule itself. The experiment in a line: cryo-EM structure.

One may read the stoichiometry N as a count of units in the complex or per binding partner.

B1: measles virus fusion glycoprotein (F) (natural protein)
chain: QIHWGNLSKIGVVGIGSASYKVMTRSSHQSLVIKLMPNITLLNNCTRVEIAEYRRLLRTVLEPIRDALNAMTQNIRPVQSVASSRRHKRFAGVVLAGAALGVATAAQITAGIALHQSMLNSQAIDNLRASLETTNQAIEAIRQAGQEMILAVQGVQDYINNELIPSMNQLSCDLIGQKLGLKLLRYYTEILSLFGPSLRDPISAEISIQALSYALGGDINKVLEKLGYSGGDLLGILESRGIKARITHVDTESYFIVLSIAYPTLSEIKGVIVHRLEGVSYNIGSQEWYTTVPKYVATQGYLISNFDESSCTFMPEGTVCSQNALYPMSPLLQECLRGSTKSCARTLVSGSFGNRFILSQGNLIANCASILCKCYTTGTIINQDPDKILTYIAADHCPVVEVNGVTIQVGSRRYPDAVYLHRIDLGPPISLERLDVGTNLGNAIAKLEDAKELLESSDQILRSMKGLSSTSIVYILIAVCLGGLIGIPALICCCRGRCNKKGEQVGMSRPGLKPDLTGTSKSYVRSL
notes: also called MeV F; pre-fusion F
As to B1, the “stoichiometry N” value was 3.
